Reference: patent US20260217833A1 (APTEVO RESEARCH AND DEVELOPMENT, published 2026)
Positions count from the first letter of the chain named.

B1: CD4001066 (PDL_5F9 x hFc x CD40_1D5) (bispecific antibody)
chain: EVQLVESGGGLVKPGGSLRLSCAASGFTFSDYGMAWVRQAPGKGLEWVAFITSLAYIIYYADSVKGRFTISRDNAKNSLYLQMNSLRAEDTAVYYCARNYGSSPYYFDYWGQGTLVTVSSGGGGSGGGGSGGGGSGGGGSDIQMTQSPSSLSASVGDRVTITCRASQDINKFLSWYQQKPGKAPKLLIHYTSSLQPGVPSRFSGSGSGTDFTLTISSLQPEDFATYYCLQYDNLYTFGQGTKLEIKEPKSSDKTHTCPPCPAPPAAAPSVFLFPPKPKDTLMISRTPEVTCVVVDVSHEDPEVKFNWYVDGVEVHNAKTKPREEQYNSTYRVVSVLTVLHQDWLNGKEYKCAVSNKALPAPIEKTISKAKGQPREPQVYTLPPSRDELTKNQVSLTCLVKGFYPSDIAVEWESNGQPENNYKTTPPVLDSDGSFFLYSKLTVDKSRWQQGNVFSCSVMHEALHNHYTQKSLSLSPGGGGSPSDIVMSQSPSSLAVSVGEKVTMSCKSSQSLLFSVNQKNYLAWYQQKPGQSPKLLIYWASTRESGVPDRFTGSGSGTDFTLTIGSVKAEDLAVYYCQHYYSYPWTFGGGTKLEIKGGGGSGGGGSGGGGSGGGGSQVQLQQSGAELMNPGASVRISCKATGYTFSTSWIEWIKQRPGHGLEWIGEILPGSGSTNYNEKFKGKATFTADTSSNTAYMQLSSLTFEDSAVYYCARGDDGSYVRWYFDVWGAGTTVTVSS
notes: ADAPTIR format, anti-PD-L1 scFv on N-terminus, anti-CD40 scFv on C-terminus; also called CD4001066 (1D5)
B2: CD4001071 (bispecific antibody)
Fc-Knob x PDL_5F9: EPKSSDKTHTCPPCPAPPAAAPSVFLFPPKPKDTLMISRTPEVTCVVVDVSHEDPEVKFNWYVDGVEVHNAKTKPREEQYNSTYRVVSVLTVLHQDWLNGKEYKCAVSNKALPAPIEKTISKAKGQPREPQVYTLPPSRDELTKNQVSLWCLVKGFYPSDIAVEWESNGQPENNYKTTPPVLDSDGSFFLYSKLTVDKSRWQQGNVFSCSVMHEALHNHYTQKSLSLSPGGGGSPSEVQLVESGGGLVKPGGSLRLSCAASGFTFSDYGMAWVRQAPGKGLEWVAFITSLAYIIYYADSVKGRFTISRDNAKNSLYLQMNSLRAEDTAVYYCARNYGSSPYYFDYWGQGTLVTVSSGGGGSGGGGSGGGGSGGGGSDIQMTQSPSSLSASVGDRVTITCRASQDINKFLSWYQQKPGKAPKLLIHYTSSLQPGVPSRFSGSGSGTDFTLTISSLQPEDFATYYCLQYDNLYTFGQGTKLEIK
CD40_5B9 x Fc-Hole x PDL_5F9: DVVMTQTPLSLPVSLGDQASISCRSSQSLVHYNGYTYLHWYLQKPGQSPKLLIYKVSNRFSGVPDRFSGSGSGTDFTLKISRVEAEDLGVYFCSQTTHVPLTFGAGTKLELRGGGGSGGGGSGGGGSGGGGSEVMLVESGGGLVKPGGSLKLSCAASGFTFSSYAMSWVRQTPERRLEWVASISSAGTYIYYPDSVKGRFTISRDNAKNILYLQMNSLRSEDTAMYYCARHGNGYDPLWYFDVWGAGTTVTVSSEPKSSDKTHTCPPCPAPPAAAPSVFLFPPKPKDTLMISRTPEVTCVVVDVSHEDPEVKFNWYVDGVEVHNAKTKPREEQYNSTYRVVSVLTVLHQDWLNGKEYKCAVSNKALPAPIEKTISKAKGQPREPQVYTLPPSRDELTKNQVSLSCAVKGFYPSDIAVEWESNGQPENNYKTTPPVLDSDGSFFLVSKLTVDKSRWQQGNVFSCSVMHEALHNRFTQKSLSLSPGGGGSPSEVQLVESGGGLVKPGGSLRLSCAASGFTFSDYGMAWVRQAPGKGLEWVAFITSLAYIIYYADSVKGRFTISRDNAKNSLYLQMNSLRAEDTAVYYCARNYGSSPYYFDYWGQGTLVTVSSGGGGSGGGGSGGGGSGGGGSDIQMTQSPSSLSASVGDRVTITCRASQDINKFLSWYQQKPGKAPKLLIHYTSSLQPGVPSRFSGSGSGTDFTLTISSLQPEDFATYYCLQYDNLYTFGQGTKLEIK
B3: CD4001049 (bispecific antibody)
scFv-Fc-scFv chain: DIVMSQSPSSLAVSVGEKVTMSCKSSQSLLFSVNQKNYLAWYQQKPGQSPKLLIYWASTRESGVPDRFTGSGSGTDFTLTIGSVKAEDLAVYYCQHYYSYPWTFGGGTKLEIKGGGGSGGGGSGGGGSGGGGSQVQLQQSGAELMNPGASVRISCKATGYTFSTSWIEWIKQRPGHGLEWIGEILPGSGSTNYNEKFKGKATFTADTSSNTAYMQLSSLTFEDSAVYYCARGDDGSYVRWYFDVWGAGTTVTVSSEPKSSDKTHTCPPCPAPPAAAPSVFLFPPKPKDTLMISRTPEVTCVVVDVSHEDPEVKFNWYVDGVEVHNAKTKPREEQYNSTYRVVSVLTVLHQDWLNGKEYKCAVSNKALPAPIEKTISKAKGQPREPQVYTLPPSRDELTKNQVSLTCLVKGFYPSDIAVEWESNGQPENNYKTTPPVLDSDGSFFLYSKLTVDKSRWQQGNVFSCSVMHEALHNHYTQKSLSLSPGGGGSPSEVQLVESGGGLVKPGGSLRLSCAASGFTFSDYGMAWVRQAPGKGLEWVAFITSLAYIIYYADSVKGRFTISRDNAKNSLYLQMNSLRAEDTAVYYCARNYGSSPYYFDYWGQGTLVTVSSGGGGSGGGGSGGGGSGGGGSDIQMTQSPSSLSASVGDRVTITCRASQDINKFLSWYQQKPGKAPKLLIHYTSSLQPGVPSRFSGSGSGTDFTLTISSLQPEDFATYYCLQYDNLYTFGQGTKLEIK
notes: also called CD40_1D5 x hFc x PDL_5F9
B4: CD4001073 (bispecific antibody)
CD40_2H7 x Fc-Knob: DIVMTQSHKFMSTSVGDRVSITCKASQDVNTAVAWYQQKPGQSPKLLIYSASYRYTGVPDRFTGSGSGTDFTFTISSVQAEDLAVYYCQQHYSTPWTFGGGTKLEIKGGGGSGGGGSGGGGSGGGGSQVQLQQSGAELAKPGASVKMSCKASGYAFTTYWMHWVKQRPGQGLEWIGYINPTTGYTDYNQKFKDKATLTADKSSSTAYMQLSSLTSEDSAVYYCARWGLPPFAYWGQGTLVTVSAEPKSSDKTHTCPPCPAPPAAAPSVFLFPPKPKDTLMISRTPEVTCVVVDVSHEDPEVKFNWYVDGVEVHNAKTKPREEQYNSTYRVVSVLTVLHQDWLNGKEYKCAVSNKALPAPIEKTISKAKGQPREPQVYTLPPSRDELTKNQVSLWCLVKGFYPSDIAVEWESNGQPENNYKTTPPVLDSDGSFFLYSKLTVDKSRWQQGNVFSCSVMHEALHNHYTQKSLSLSPG
CD40_2H7 x Fc-Hole x PDL_5F9: DIVMTQSHKFMSTSVGDRVSITCKASQDVNTAVAWYQQKPGQSPKLLIYSASYRYTGVPDRFTGSGSGTDFTFTISSVQAEDLAVYYCQQHYSTPWTFGGGTKLEIKGGGGSGGGGSGGGGSGGGGSQVQLQQSGAELAKPGASVKMSCKASGYAFTTYWMHWVKQRPGQGLEWIGYINPTTGYTDYNQKFKDKATLTADKSSSTAYMQLSSLTSEDSAVYYCARWGLPPFAYWGQGTLVTVSAEPKSSDKTHTCPPCPAPPAAAPSVFLFPPKPKDTLMISRTPEVTCVVVDVSHEDPEVKFNWYVDGVEVHNAKTKPREEQYNSTYRVVSVLTVLHQDWLNGKEYKCAVSNKALPAPIEKTISKAKGQPREPQVYTLPPSRDELTKNQVSLSCAVKGFYPSDIAVEWESNGQPENNYKTTPPVLDSDGSFFLVSKLTVDKSRWQQGNVFSCSVMHEALHNRFTQKSLSLSPGGGGSPSEVQLVESGGGLVKPGGSLRLSCAASGFTFSDYGMAWVRQAPGKGLEWVAFITSLAYIIYYADSVKGRFTISRDNAKNSLYLQMNSLRAEDTAVYYCARNYGSSPYYFDYWGQGTLVTVSSGGGGSGGGGSGGGGSGGGGSDIQMTQSPSSLSASVGDRVTITCRASQDINKFLSWYQQKPGKAPKLLIHYTSSLQPGVPSRFSGSGSGTDFTLTISSLQPEDFATYYCLQYDNLYTFGQGTKLEIK
B5: CD4001067 (bispecific antibody)
PDL_5F9 x Fc-Knob: EVQLVESGGGLVKPGGSLRLSCAASGFTFSDYGMAWVRQAPGKGLEWVAFITSLAYIIYYADSVKGRFTISRDNAKNSLYLQMNSLRAEDTAVYYCARNYGSSPYYFDYWGQGTLVTVSSGGGGSGGGGSGGGGSGGGGSDIQMTQSPSSLSASVGDRVTITCRASQDINKFLSWYQQKPGKAPKLLIHYTSSLQPGVPSRFSGSGSGTDFTLTISSLQPEDFATYYCLQYDNLYTFGQGTKLEIKEPKSSDKTHTCPPCPAPPAAAPSVFLFPPKPKDTLMISRTPEVTCVVVDVSHEDPEVKFNWYVDGVEVHNAKTKPREEQYNSTYRVVSVLTVLHQDWLNGKEYKCAVSNKALPAPIEKTISKAKGQPREPQVYTLPPSRDELTKNQVSLWCLVKGFYPSDIAVEWESNGQPENNYKTTPPVLDSDGSFFLYSKLTVDKSRWQQGNVFSCSVMHEALHNHYTQKSLSLSPG
CD40_2H7 x Fc-Hole: B4 CD40_2H7 x Fc-Knob with W394S, L396A, Y435V, H463R, Y464F
B6: CD4001064 (PDL_5F9 x hFc x CD40_2H7) (bispecific antibody)
chain: EVQLVESGGGLVKPGGSLRLSCAASGFTFSDYGMAWVRQAPGKGLEWVAFITSLAYIIYYADSVKGRFTISRDNAKNSLYLQMNSLRAEDTAVYYCARNYGSSPYYFDYWGQGTLVTVSSGGGGSGGGGSGGGGSGGGGSDIQMTQSPSSLSASVGDRVTITCRASQDINKFLSWYQQKPGKAPKLLIHYTSSLQPGVPSRFSGSGSGTDFTLTISSLQPEDFATYYCLQYDNLYTFGQGTKLEIKEPKSSDKTHTCPPCPAPPAAAPSVFLFPPKPKDTLMISRTPEVTCVVVDVSHEDPEVKFNWYVDGVEVHNAKTKPREEQYNSTYRVVSVLTVLHQDWLNGKEYKCAVSNKALPAPIEKTISKAKGQPREPQVYTLPPSRDELTKNQVSLTCLVKGFYPSDIAVEWESNGQPENNYKTTPPVLDSDGSFFLYSKLTVDKSRWQQGNVFSCSVMHEALHNHYTQKSLSLSPGGGGSPSDIVMTQSHKFMSTSVGDRVSITCKASQDVNTAVAWYQQKPGQSPKLLIYSASYRYTGVPDRFTGSGSGTDFTFTISSVQAEDLAVYYCQQHYSTPWTFGGGTKLEIKGGGGSGGGGSGGGGSGGGGSQVQLQQSGAELAKPGASVKMSCKASGYAFTTYWMHWVKQRPGQGLEWIGYINPTTGYTDYNQKFKDKATLTADKSSSTAYMQLSSLTSEDSAVYYCARWGLPPFAYWGQGTLVTVSA
notes: ADAPTIR format, anti-PD-L1 scFv on N-terminus, anti-CD40 scFv on C-terminus; also called CD4001064 (2H7)
B7: CD4001069 (bispecific antibody)
PDL_5F9 x Fc-Knob: B5 PDL_5F9 x Fc-Knob
CD40_1D5 x Fc-Hole: DIVMSQSPSSLAVSVGEKVTMSCKSSQSLLFSVNQKNYLAWYQQKPGQSPKLLIYWASTRESGVPDRFTGSGSGTDFTLTIGSVKAEDLAVYYCQHYYSYPWTFGGGTKLEIKGGGGSGGGGSGGGGSGGGGSQVQLQQSGAELMNPGASVRISCKATGYTFSTSWIEWIKQRPGHGLEWIGEILPGSGSTNYNEKFKGKATFTADTSSNTAYMQLSSLTFEDSAVYYCARGDDGSYVRWYFDVWGAGTTVTVSSEPKSSDKTHTCPPCPAPPAAAPSVFLFPPKPKDTLMISRTPEVTCVVVDVSHEDPEVKFNWYVDGVEVHNAKTKPREEQYNSTYRVVSVLTVLHQDWLNGKEYKCAVSNKALPAPIEKTISKAKGQPREPQVYTLPPSRDELTKNQVSLSCAVKGFYPSDIAVEWESNGQPENNYKTTPPVLDSDGSFFLVSKLTVDKSRWQQGNVFSCSVMHEALHNRFTQKSLSLSPG

Target: T1, Human PD-L1 full-length (human, UniProt Q9NZQ7 19-290)
T1 construct: also called PDL01021; CHOK1SV/huPDL1
Test: flow cytometry, CHOK1SV/human PD-L1 cells

T1 sequence (Q9NZQ7 19-290): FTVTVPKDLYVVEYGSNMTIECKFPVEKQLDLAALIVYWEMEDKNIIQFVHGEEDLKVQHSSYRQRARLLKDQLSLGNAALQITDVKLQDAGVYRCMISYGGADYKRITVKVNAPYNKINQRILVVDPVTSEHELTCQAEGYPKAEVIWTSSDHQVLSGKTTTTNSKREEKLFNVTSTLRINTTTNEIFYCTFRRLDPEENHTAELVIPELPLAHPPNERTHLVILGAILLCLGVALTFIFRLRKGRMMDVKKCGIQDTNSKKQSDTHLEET

Binding result, binds:
B1
B2
B3
B4
B5
B6
B7
